Test results taken from publication PMC12753717.

Key:
[1] = molecular target: soluble envelope protein ectodomain of yellow fever virus strain 17D with C-terminal 3C site and TwinStrep tag (yellow fever virus strain 17D); assay: SEC-MALS
[2] = molecular target: soluble envelope protein ectodomain of yellow fever virus strain Asibi with C-terminal 3C site and TwinStrep tag (yellow fever virus strain Asibi); assay: SEC-MALS

Substance: precursor peptide pr of yellow fever virus strain 17D
- stoichiometry N [1]: 1

Substance: precursor peptide pr of yellow fever virus strain Asibi, canonical furin cleavage product (pr1, 9.95 kDa)
- stoichiometry N [2]: 1
